The values below come from US20040192898A1.

By IC50 is commonly meant the midpoint of a concentration-inhibition curve. The Kd is the equilibrium constant for the complex coming apart. The low end stands for higher affinity, the high end for lower affinity.

“And” between values parts separate entries of the source, which are not always exact repeats. Identical values can stand only once.

Assay [1] has as its target β-amyloid peptide (1-42) conjugated to BSA (bovine) (UniProt P05067). Kind of assay: competition ELISA, BSA-β-amyloid peptide coated, against biotinylated Mu266 (0.6 µg/ml); average of three, N56T series. In general terms: In an ELISA, binding on a coated surface is turned into a signal by an enzyme label.
The target is the same in assay [2]. Briefly: competition ELISA, BSA-β-amyloid peptide coated, against biotinylated Mu266 (0.6 µg/ml); Exp. II, N56T series.
Assay [3] has the same target. Kind of assay: competition ELISA, BSA-β-amyloid peptide coated, against biotinylated Mu266 (0.6 µg/ml); Exp. II, N56S series.
Assay [4] concerns the target Amyloid-beta 1-40 (UniProt P05067). Briefly: SPR, BIAcore 2000; antibody captured, Aβ flowed over.
The target in assay [5] is Amyloid-beta 1-42 (UniProt P05067). Described as above.
Assay [6] has as its target β-amyloid peptide (1-42) conjugated to BSA (bovine) (UniProt P05067). Briefly: competition ELISA, BSA-β-amyloid peptide coated, against biotinylated Mu266 (0.6 µg/ml); average of three, N56S series.
Assay [7] has the same target. Kind of assay: competition ELISA, Aβ1-42-BSA coated, against biotinylated Mu266 (0.3 µg/ml); mean of three experiments, first set.
Assay [8] shares this target. Kind of assay: competition ELISA, BSA-β-amyloid peptide coated, against biotinylated Mu266 (0.6 µg/ml); Exp. III, N56S series.
Assay [9] shares this target. Briefly: competition ELISA, BSA-β-amyloid peptide coated, against biotinylated Mu266 (0.6 µg/ml); Exp. I, N56T series.
For assay [10] the target is unchanged. Briefly: competition ELISA, Aβ1-42-BSA coated, against biotinylated Mu266 (0.3 µg/ml); mean of three experiments, second set.
The target is the same in assay [11]. Briefly: competition ELISA as in Example 7, against biotinylated Mu266; N=1.
Assay [12] shares this target. Briefly: competition ELISA as in Example 7, against biotinylated Mu266; mean, N=3.
The target is the same in assay [13]. Kind of assay: competition ELISA, BSA-β-amyloid peptide coated, against biotinylated Mu266 (0.6 µg/ml); Exp. I, N56S series.
The target is the same in assay [14]. Briefly: competition ELISA, BSA-β-amyloid peptide coated, against biotinylated Mu266 (0.6 µg/ml); Exp. III, N56T series.

For the substance Mouse monoclonal antibody 266, the half-inhibitory concentration (IC50) in [1] turned out to be 5.7 µg/mL; in [2] it was 6.4 µg/mL; in assay [3], 4.5 µg/mL; in assay [6], 4.8 µg/mL; in [7], 4.7 µg/mL; in [8] it was 6.1 µg/mL. Also, the IC50 in assay [9] was 4.3 µg/mL; in assay [10], 3.87 µg/mL; in [11], 3.8 µg/mL and 7.1 µg/mL; in assay [12], 7.6 µg/mL and 14 µg/mL; in assay [13], 3.8 µg/mL; in assay [14], 6.4 µg/mL. For the same substance, the Kd in [4] and in [5] was 4 pM throughout.
